Experimental data: the supplement of paper PMC9112550, “Optimization of the antimicrobial peptide Bac7 by deep mutational scanning” (BMC Biology, 2022)

Tested on: Escherichia coli TOP10
Experiment: shrunken log2 fold change of peptide-encoding DNA abundance (4.5 h post-induction vs induction); higher = less antimicrobial activity (less host growth inhibition)
Settings: time post-induction: 4.5 h; library: site-saturation at positions 5, 18, 19, 20
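Also: peptides expressed intracellularly from a pBAD plasmid library in pooled LB shake-flask culture, induced with 0.3% L-arabinose, DNA abundance read by NGS, three biological replicates, DESeq2 with apeglm shrinkage.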

| Sequence | shrunken log2 fold change |
| --- | --- |
| RRIRSRPPRLPRPRPRPHTPPRP | -0.318 |
| RRIRARPPRLPRPRPRPWWFPRP | 0.049 |
| RRIRWRPPRLPRPRPRPEYPPRP | 0.208 |
| RRIRHRPPRLPRPRPRPSDPPRP | -0.0545 |
| RRIRARPPRLPRPRPRPNTDPRP | -0.127 |
| RRIRYRPPRLPRPRPRPADFPRP | -0.0123 |
| RRIRQRPPRLPRPRPRPPMVPRP | -0.0885 |
| RRIRWRPPRLPRPRPRPTHQPRP | -0.0304 |
| RRIRFRPPRLPRPRPRPFLPPRP | -0.208 |
| RRIRKRPPRLPRPRPRPQGWPRP | 0.116 |
| RRIRLRPPRLPRPRPRPWSYPRP | -1.41 |
| RRIRYRPPRLPRPRPRPPLHPRP | -0.455 |
| RRIRIRPPRLPRPRPRPSERPRP | -0.073 |
| RRIRPRPPRLPRPRPRPIIIPRP | -0.593 |
| RRIRRRPPRLPRPRPRPKYMPRP | -0.444 |
| RRIRYRPPRLPRPRPRPQCLPRP | 0.0613 |
| RRIRERPPRLPRPRPRPKGFPRP | 0.0527 |
| RRIRDRPPRLPRPRPRPNWAPRP | 0.00788 |
| RRIRQRPPRLPRPRPRPMSHPRP | 0.00245 |
| RRIRHRPPRLPRPRPRPLKYPRP | -0.345 |
| RRIRRRPPRLPRPRPRPKTSPRP | 2.22 |
| RRIRPRPPRLPRPRPRPLHDPRP | -0.034 |
| RRIRNRPPRLPRPRPRPYMCPRP | -0.18 |
| RRIRERPPRLPRPRPRPFFYPRP | -0.258 |
| RRIRYRPPRLPRPRPRPNHCPRP | 0.00938 |

| Sequence | shrunken log2 fold change |
| --- | --- |
| RRIRMRPPRLPRPRPRPVCIPRP | -0.0455 |
| RRIRTRPPRLPRPRPRPRGEPRP | 0.152 |
| RRIRNRPPRLPRPRPRPKFYPRP | -0.83 |
| RRIRWRPPRLPRPRPRPIVSPRP | -0.000687 |
| RRIRTRPPRLPRPRPRPIQEPRP | 0.0124 |
| RRIRVRPPRLPRPRPRPWWGPRP | 0.0115 |
| RRIRRRPPRLPRPRPRPVTIPRP | 0.297 |
| RRIRVRPPRLPRPRPRPHSAPRP | -0.119 |
| RRIRIRPPRLPRPRPRPRHNPRP | -0.245 |
| RRIRARPPRLPRPRPRPQSHPRP | -0.162 |
| RRIRDRPPRLPRPRPRPPDGPRP | 0.577 |
| RRIRMRPPRLPRPRPRPPNAPRP | 1.11 |
| RRIRSRPPRLPRPRPRPTAFPRP | 0.534 |
| RRIRRRPPRLPRPRPRPDQMPRP | -0.0181 |
| RRIRDRPPRLPRPRPRPGVEPRP | 0.022 |
| RRIRFRPPRLPRPRPRPEKTPRP | -0.00398 |
| RRIRARPPRLPRPRPRPHHGPRP | -0.122 |
| RRIRDRPPRLPRPRPRPAPCPRP | 0.658 |
| RRIRLRPPRLPRPRPRPRWQPRP | 0.217 |
| RRIRPRPPRLPRPRPRPFGGPRP | 0.0321 |
| RRIRIRPPRLPRPRPRPPYRPRP | -0.468 |
| RRIRARPPRLPRPRPRPDYAPRP | 2.44 |
| RRIRYRPPRLPRPRPRPKSAPRP | 0.0745 |
| RRIRLRPPRLPRPRPRPKALPRP | -0.224 |
| RRIRIRPPRLPRPRPRPEHMPRP | -0.0778 |

| Sequence | shrunken log2 fold change |
| --- | --- |
| RRIRNRPPRLPRPRPRPKGQPRP | 0.0938 |
| RRIRARPPRLPRPRPRPCEFPRP | 0.168 |
| RRIRQRPPRLPRPRPRPWPGPRP | 0.116 |
| RRIRPRPPRLPRPRPRPHGDPRP | -0.0431 |
| RRIRWRPPRLPRPRPRPISRPRP | -0.116 |
| RRIRRRPPRLPRPRPRPSVEPRP | 0.0256 |
| RRIRWRPPRLPRPRPRPPAPPRP | 1.03 |
| RRIRCRPPRLPRPRPRPMNVPRP | -0.00117 |
| RRIRKRPPRLPRPRPRPMTQPRP | -0.0547 |
| RRIRVRPPRLPRPRPRPQEQPRP | 0.0925 |
| RRIRHRPPRLPRPRPRPVATPRP | -0.079 |
| RRIRERPPRLPRPRPRPMLYPRP | -0.222 |
| RRIRFRPPRLPRPRPRPWLGPRP | 0.0212 |
| RRIRARPPRLPRPRPRPTYFPRP | 0.161 |
| RRIRNRPPRLPRPRPRPFKNPRP | 0.0633 |
| RRIRKRPPRLPRPRPRPQFHPRP | 0.119 |
| RRIRLRPPRLPRPRPRPMKTPRP | -0.034 |
| RRIRQRPPRLPRPRPRPSSVPRP | 0.00784 |
| RRIRNRPPRLPRPRPRPHMEPRP | -0.145 |
| RRIRRRPPRLPRPRPRPHAFPRP | -0.103 |
| RRIRSRPPRLPRPRPRPWRWPRP | 0.124 |
| RRIRTRPPRLPRPRPRPLETPRP | 0.0461 |
| RRIRKRPPRLPRPRPRPPVYPRP | 0.387 |
| RRIRLRPPRLPRPRPRPDCAPRP | 0.239 |
| RRIRFRPPRLPRPRPRPSDSPRP | -0.21 |

| Sequence | shrunken log2 fold change |
| --- | --- |
| RRIRGRPPRLPRPRPRPMSYPRP | 0.0417 |
| RRIRGRPPRLPRPRPRPIEGPRP | 0.0275 |
| RRIRGRPPRLPRPRPRPRVIPRP | 0.227 |
| RRIRIRPPRLPRPRPRPQREPRP | 0.0374 |
| RRIRWRPPRLPRPRPRPFLEPRP | 0.0541 |
| RRIRDRPPRLPRPRPRPPRHPRP | 0.377 |
| RRIRDRPPRLPRPRPRPQHNPRP | -0.554 |
| RRIRKRPPRLPRPRPRPGYAPRP | 0.223 |
| RRIRMRPPRLPRPRPRPNFQPRP | -0.0246 |
| RRIRSRPPRLPRPRPRPDMMPRP | -0.36 |
| RRIRNRPPRLPRPRPRPSTGPRP | -0.266 |
| RRIRARPPRLPRPRPRPHGYPRP | 0.0466 |
| RRIRKRPPRLPRPRPRPWLYPRP | 0.00941 |
| RRIRTRPPRLPRPRPRPANSPRP | -0.119 |
| RRIRNRPPRLPRPRPRPVIYPRP | -0.301 |
| RRIRHRPPRLPRPRPRPEFQPRP | -0.0862 |
| RRIRDRPPRLPRPRPRPSCVPRP | 0.282 |
| RRIRLRPPRLPRPRPRPQDCPRP | 0.0274 |
| RRIRWRPPRLPRPRPRPINDPRP | -0.222 |
| RRIRGRPPRLPRPRPRPCQFPRP | 0.33 |
| RRIRWRPPRLPRPRPRPIAMPRP | 0.256 |
| RRIRCRPPRLPRPRPRPWWCPRP | -0.248 |
| RRIRTRPPRLPRPRPRPLPMPRP | -0.0573 |
| RRIRARPPRLPRPRPRPPCFPRP | 0.482 |
| RRIRRRPPRLPRPRPRPWDAPRP | 0.143 |

| Sequence | shrunken log2 fold change |
| --- | --- |
| RRIRLRPPRLPRPRPRPPKFPRP | 0.028 |
| RRIRHRPPRLPRPRPRPCMLPRP | -0.151 |
| RRIRPRPPRLPRPRPRPAVRPRP | -0.246 |
| RRIRWRPPRLPRPRPRPSTLPRP | -0.253 |
| RRIRMRPPRLPRPRPRPNYCPRP | -0.0723 |
| RRIRLRPPRLPRPRPRPHICPRP | -0.162 |
| RRIRVRPPRLPRPRPRPEDPPRP | 0.476 |
| RRIRWRPPRLPRPRPRPVPIPRP | -0.0691 |
| RRIRDRPPRLPRPRPRPQKIPRP | 0.0171 |
| RRIRARPPRLPRPRPRPYFGPRP | -0.327 |
| RRIRARPPRLPRPRPRPSMHPRP | 0.163 |
| RRIRWRPPRLPRPRPRPYRKPRP | 0.0527 |
| RRIRCRPPRLPRPRPRPRVIPRP | 0.0854 |
| RRIRTRPPRLPRPRPRPKSAPRP | 0.221 |
| RRIRQRPPRLPRPRPRPTACPRP | 0.0488 |
| RRIRERPPRLPRPRPRPTQQPRP | 0.0931 |
| RRIRFRPPRLPRPRPRPRYLPRP | -0.0779 |
| RRIRARPPRLPRPRPRPGTQPRP | 0.316 |
| RRIRARPPRLPRPRPRPFWNPRP | 0.127 |
| RRIRRRPPRLPRPRPRPSQLPRP | 0.448 |
| RRIRERPPRLPRPRPRPKYDPRP | -0.0434 |
| RRIRVRPPRLPRPRPRPVVLPRP | 0.0921 |
| RRIRRRPPRLPRPRPRPFYQPRP | -0.46 |
| RRIRHRPPRLPRPRPRPFDAPRP | 0.00493 |
| RRIRWRPPRLPRPRPRPSMKPRP | -0.199 |

| Sequence | shrunken log2 fold change |
| --- | --- |
| RRIRFRPPRLPRPRPRPFDKPRP | 0.00679 |
| RRIRHRPPRLPRPRPRPYQIPRP | -0.484 |
| RRIRARPPRLPRPRPRPTQQPRP | -0.0711 |
| RRIRWRPPRLPRPRPRPTGSPRP | 0.123 |
| RRIRARPPRLPRPRPRPEVMPRP | 0.28 |
| RRIRCRPPRLPRPRPRPYSYPRP | -0.0951 |
| RRIRQRPPRLPRPRPRPCGIPRP | -0.115 |
| RRIRRRPPRLPRPRPRPQKIPRP | 0.0999 |
| RRIRWRPPRLPRPRPRPDHWPRP | 0.109 |
| RRIRIRPPRLPRPRPRPFVCPRP | -0.797 |
| RRIRNRPPRLPRPRPRPTCKPRP | -0.0431 |
| RRIRHRPPRLPRPRPRPPRNPRP | 0.105 |
| RRIRKRPPRLPRPRPRPFRWPRP | 0.0626 |
| RRIRIRPPRLPRPRPRPCLEPRP | -0.808 |
| RRIRRRPPRLPRPRPRPETLPRP | 0.0675 |
| RRIRNRPPRLPRPRPRPPLWPRP | 0.539 |
| RRIRPRPPRLPRPRPRPCCEPRP | -0.116 |
| RRIRMRPPRLPRPRPRPGFVPRP | 0.449 |
| RRIRCRPPRLPRPRPRPKGTPRP | 0.0259 |
| RRIRLRPPRLPRPRPRPTAWPRP | 0.222 |
| RRIRPRPPRLPRPRPRPFVAPRP | -0.186 |
| RRIRIRPPRLPRPRPRPRCVPRP | -0.0162 |
| RRIRPRPPRLPRPRPRPKYLPRP | -0.0768 |
| RRIRARPPRLPRPRPRPWCWPRP | 0.583 |
| RRIRNRPPRLPRPRPRPGYQPRP | -0.0454 |
